# “Also recorded” adds a separate entry of the source.
# T1: human MerTK (Homo sapiens, UniProt Q12866)
# T1 sequence (Q12866 21-999): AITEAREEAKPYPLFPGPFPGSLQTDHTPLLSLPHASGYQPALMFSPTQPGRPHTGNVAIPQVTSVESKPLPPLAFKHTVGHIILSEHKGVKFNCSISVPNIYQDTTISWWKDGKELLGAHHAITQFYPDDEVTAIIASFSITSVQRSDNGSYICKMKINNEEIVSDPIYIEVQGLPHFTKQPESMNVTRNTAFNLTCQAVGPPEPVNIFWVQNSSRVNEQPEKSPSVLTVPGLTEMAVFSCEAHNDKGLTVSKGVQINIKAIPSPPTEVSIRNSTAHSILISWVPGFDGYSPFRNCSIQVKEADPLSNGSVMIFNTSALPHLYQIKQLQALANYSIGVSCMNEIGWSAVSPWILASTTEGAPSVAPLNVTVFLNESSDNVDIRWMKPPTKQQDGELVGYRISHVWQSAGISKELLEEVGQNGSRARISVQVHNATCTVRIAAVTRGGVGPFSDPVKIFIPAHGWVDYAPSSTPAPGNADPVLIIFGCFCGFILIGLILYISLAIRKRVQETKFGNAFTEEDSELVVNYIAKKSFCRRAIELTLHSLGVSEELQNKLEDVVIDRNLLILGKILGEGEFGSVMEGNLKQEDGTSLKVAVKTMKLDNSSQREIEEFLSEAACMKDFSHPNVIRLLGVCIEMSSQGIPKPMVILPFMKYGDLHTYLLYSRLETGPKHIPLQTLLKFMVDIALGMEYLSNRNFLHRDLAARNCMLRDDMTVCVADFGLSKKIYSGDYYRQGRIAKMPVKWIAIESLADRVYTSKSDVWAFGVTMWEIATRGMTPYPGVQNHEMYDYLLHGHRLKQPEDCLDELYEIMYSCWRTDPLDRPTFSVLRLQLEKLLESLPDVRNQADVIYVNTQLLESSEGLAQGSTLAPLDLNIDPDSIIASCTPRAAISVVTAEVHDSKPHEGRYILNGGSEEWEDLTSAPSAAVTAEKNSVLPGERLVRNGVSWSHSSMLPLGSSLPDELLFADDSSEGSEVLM
# T2: binding of MerTK with Gas6 (Homo sapiens, UniProt Q12866)
# T2 construct: purchased R&D Systems
# T2 sequence (Q12866 26-499 limits assumed): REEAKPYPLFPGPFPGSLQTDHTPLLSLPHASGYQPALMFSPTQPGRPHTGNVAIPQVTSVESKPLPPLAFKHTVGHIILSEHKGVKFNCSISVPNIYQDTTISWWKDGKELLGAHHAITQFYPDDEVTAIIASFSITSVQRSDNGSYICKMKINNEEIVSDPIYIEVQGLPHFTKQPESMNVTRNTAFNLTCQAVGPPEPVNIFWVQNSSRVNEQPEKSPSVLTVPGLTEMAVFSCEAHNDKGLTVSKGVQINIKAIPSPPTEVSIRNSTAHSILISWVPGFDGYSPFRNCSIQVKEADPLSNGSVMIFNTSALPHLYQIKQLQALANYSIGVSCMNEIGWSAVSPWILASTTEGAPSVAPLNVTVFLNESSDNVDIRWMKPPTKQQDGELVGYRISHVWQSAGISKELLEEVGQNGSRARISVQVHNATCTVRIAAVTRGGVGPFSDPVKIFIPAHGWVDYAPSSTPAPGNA
# T3: binding of MerTK with TULP1 (Homo sapiens, UniProt Q12866)
# T3 construct: purchased R&D Systems
# T3 sequence (Q12866 26-499 limits assumed): T2 sequence (Q12866 26-499 limits assumed)
# B1: 24A1: anti-MerTK mouse monoclonal antibody clone; VH SEQ ID NO: 9, VL SEQ ID NO: 13 (antibody, V domains shown)
# VH: EVQLVESGGGLVQPKGSLKLSCAASGFTFNVYDMHWVRQAPGEGLEWVARIRSKSSNYATNYADSVKDRFTISRDDSQSMLYLQMNNLQTEDTAIYYCVRDGSHYYYALDYWGQGTSVTVSS
# VL: DIQMTQTTSSLSASLGDRVTISCRASQDINNYLNWYQQKLDGTVKLLIYYSSRLHSGVPSRFSGSGSGTDYSLTISNLEQEDIATYFCQQGKMFPWTFGGGTKLEIK
# B2: m20A77_mIgG1: mouse IgG1 antibody of m20A77 (antibody, V domains shown)
# VH: QVQLQQPGTELVKPGASVKLSCRASGNTFTSYWMHWVKQRPGQGLEWIGNINPSSGGTNYNEKFKSKATLTVDKSSSTAYMQLSSLTSEDSAVYYCARLNYYGFDGFAFWGQGTLVTVSA
# VL: DIKMTQSPSSMYASLGERVTITCKASQDINSYLSWFQQKPGKSPKTLIYRANRLVSGVPSRFSGSGSGQDYSLTISSLEYEDMGIYYCLQYDEFPFTFGSGTKLEIK
# B3: hz20A77_hIgG1LALA: humanized antibody derived from m20A77 with human IgG1 constant region having LALA sequence (antibody, V domains shown)
# VH: QVQLVQSGAEVKKPGSSVKVSCKASGNTFTSYWMHWVRQAPGQGLEWIGNINPSSGGTNYNEKFKSRVTITVDKSTSTAYMELSSLRSEDTAVYYCARLNYYGFDGFAFWGQGTLVTVSS
# VL: DIQMTQSPSSLSASVGDRVTITCKASQDINSYLSWFQQKPGKAPKTLIYRANRLVSGVPSRFSGSGSGTDYTLTISSLQPEDFATYYCLQYDEFPFTFGGGTKVEIK
# B4: hz24A1_hIgG1LALA: humanized antibody derived from 24A1 with human IgG1 constant region having LALA sequence (antibody, V domains shown)
# VH: EVQLVESGGGLVQPGGSLRLSCAASGFTFNVYDMHWVRQAPGKGLEWVARIRSKSSNYATNYADSVKDRFTISRDDAKNSLYLQMNSLRAEDTAVYYCVRDGSHYYYALDYWGQGTTVTVSS
# VL: DIQMTQSPSSLSASVGDRVTITCRASQDINNYLNWYQQKPGKAPKLLIYYSSRLHSGVPSRFSGSGSGTDYTLTISSLQPEDFATYYCQQGKMFPWTFGGGTKVEIK
# What was measured:
# [1] = target: T1, human MerTK; assay: MerTK phosphorylation inhibition test in hMerTK-EL4 cells stimulated with human Gas6; assay type: cell-based; set-up: expressed in transfected cells; host or cells: mouse lymphoma cell line EL4 (hMerTK-EL4); settings: hMerTK-EL4, antibody 1 hour, then 200 nM human Gas6 for 10 minutes; phospho-Mer ELISA; FIG. 1
# Method: On the basis of the procedures indicated below, the clones were evaluated for MerTK phosphorylation inhibitory activity. Higher activity means higher binding ability to MerTK.
# The cells (hMerTK-EL4) stably expressing human MerTK were cultured in a “DMEM high glucose medium” (Thermo Fisher Scientific Inc.) containing 10% FBS. After the cultivation, the cells were washed in PBS, suspended in a serum-free medium, plated in a 96-well plate at 1×10^6 cells/well and incubated at 37° C. for 3 hours. After the incubation, the respective clones were added, the hMerTK-EL4 was allowed to react for 1 hour, stimulated with 200 nM human Gas6 (R&D Systems) for 10 minutes and centrifuged and collected. The collected hMerTK-EL4 was lysed in a cell lysis solution, and the level of the phosphorylated MerTK protein in the lysate was determined using “Human Phospho-Mer DuoSet IC ELISA” (R&D Systems). The cell lysis solution used contained 1% “IGEPAL CA-630” (SIGMA) and 1×concentration of “Halt Protease and Phosphatase Inhibitor Single-Use Inhibitor Cocktail” (Thermo Fisher Scientific Inc.) added to MilliQ water.
# [2] = target: T2, binding of MerTK with Gas6; assay: Test 6: ligand binding inhibition ELISA, MerTK with Gas6; settings: human MerTK 5 μg/ml immobilized; biotinylated Gas6 10 nM; FIGS. 13 and 15
# Method: (§1) “20A77” and “24A1” were evaluated for the ability to inhibit binding of MerTK with various ligands. The MerTK ligands used were human Gas6 (R&D Systems) and human TULP1 (abcam plc.) which were respectively biotinylated using “Biotin Labeling Kit-NH” (Dojindo Laboratories Co., Ltd.). […] TULP1 is a ligand correlated with ocular toxicity, and an antibody having an activity to inhibit binding of MerTK with TULP1 may have ocular toxicity. Thus, an antibody having high inhibitory activity of binding to Gas6 and low inhibitory activity of binding to TULP1 may be an efficacious anti-tumor agent having low ocular toxicity.
# (§2) The ligand binding inhibition test was carried out as indicated below. First, human MerTK (R&D Systems) was added to an ELISA plate (Nunc) at a concentration of 5 μg/ml and immobilized overnight at room temperature. After removing the immobilization solution, 1% BSA/PBS was added for blocking reaction and left to stand at room temperature for 1 hour. After the blocking, the plate was washed with 0.05% Tween 20/PBS and an antibody solution was added for primary reaction at room temperature for 1 hour. […] After washing, a chromogenic substrate solution of TMB (Dako) was added for chromogenic reaction for 20 minutes, 1 N sulfuric acid was added to terminate the reaction and the absorbance was measured at 450 nm.
# [3] = target: T3, binding of MerTK with TULP1; assay: Test 6: ligand binding inhibition ELISA, MerTK with TULP1; settings: human MerTK 5 μg/ml immobilized; biotinylated TULP1 40 nM; FIGS. 14 and 16
# Method: as §1, §2
# [4] = Test 8: toxic dose by in vivo ocular toxicity test, TB staining; set-up: species or system Balb/c mice; settings: 3 or 10 mg/kg intravenous twice a week, eyes removed day 30
# Method: The ocular toxicity test was carried out using Balb/c mice. The mice intravenously received a solvent or “m20A77_mIgG1” at a dose of 3 or 10 mg/kg at a frequency of twice a week. At day 30 after the first administration, eyes were removed, fixed with a Karnovsky's fixative and then subjected to embedding in a resin, preparation of sections and TB staining carried out by Applied Medical Research Laboratory.
# [5] = target: T1, human MerTK; assay: Test 9: antigen binding activity of humanized antibodies by ELISA; settings: compared with the original human chimeric antibody (m20A77_hIgG1LALA or 24A1_hIgG1LALA, respectively); FIG. 21
# Method: The ELISA was performed according to the procedures indicated below. First, the respective antigens were added to an ELISA plate (Nunc) at a concentration of 5 μg/ml and immobilized overnight at room temperature. After removing the immobilization solution, 1% BSA/PBS was added for blocking reaction and left to stand at room temperature for 1 hour. After the blocking, the plate was washed with 0.05% Tween 20/PBS and an antibody solution was added for primary reaction at room temperature for 1 hour. After washing, an HRP-labelled antibody (GE Healthcare) was added for secondary reaction for 1 hour. After washing, a chromogenic substrate solution of TMB (Dako) was added for chromogenic reaction for 10 minutes, 1 N sulfuric acid was added to terminate the reaction and the absorbance was measured at 450 nm.
# The prepared antibodies were checked for antigen binding activity by ELISA.
molecule,measurement,setting,value
B1,MerTK phosphorylation inhibitory activity,[1],inhibited binding of Gas6 with MerTK and MerTK phosphorylation in a concentration dependent manner
same,inhibition of binding of Gas6 with MerTK,[2],inhibited binding of Gas6 with MerTK; also recorded: strongly inhibited binding of Gas6 with MerTK
same,inhibition of binding of TULP1 with MerTK,[3],did not inhibit binding of TULP1 with MerTK
B2,TB-positive granules (retinal pigment epithelium),[4]; FIG. 19,no increase in TB-positive granules was observed
same,abnormal shrinkage of the outer nuclear layer,[4]; FIG. 20,no abnormal shrinkage of the outer nuclear layer was observed
B3,antigen binding activity (reactivity) in ELISA,[5],reactivity similar to or higher than original human chimeric antibodies
B4,antigen binding activity (reactivity) in ELISA,[5],reactivity similar to or higher than original human chimeric antibodies

# — patent US20250326862A1, “Antibody or Fragment Thereof Binding Specifically to Mertk, and Anti-Tumor Agent” (Chiome Bioscience Inc., priority 2021, published 2025)
